Legend:
[1] = biological target: LS4 (Archaeoglobus fulgidus scaffold, laboratory-evolved) (UniProt O29494); experiment: EMSA; details: titration regime; SPR: 10 mM HEPES pH 7.4, 150 mM NaCl, 1 mM MgCl2, 0.05% P20, 0.25 mM TCEP, 0.1 mg/ml BSA, 25 ug/ml yeast tRNA, 25 C; EMSA: 10 mM HEPES-KOH pH 7.5, 140 mM KCl …
[2] = biological target: T1, LS12 E34S (Archaeoglobus fulgidus scaffold, laboratory-evolved) (UniProt O29494); experiment: SPR; details: SPR: 10 mM HEPES pH 7.4, 150 mM NaCl, 1 mM MgCl2, 0.05% P20, 0.25 mM TCEP, 0.1 mg/ml BSA, 25 ug/ml yeast tRNA, 25 C, EMSA: 10 mM HEPES-KOH pH 7.5, 140 mM KCl …
T1 sequence: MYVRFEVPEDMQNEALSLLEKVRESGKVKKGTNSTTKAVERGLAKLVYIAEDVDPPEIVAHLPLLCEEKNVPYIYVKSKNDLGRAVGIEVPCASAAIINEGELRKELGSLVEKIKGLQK

[3] = biological target: LS4 (Archaeoglobus fulgidus scaffold, laboratory-evolved) (UniProt O29494); experiment: SPR; details: SPR: 10 mM HEPES pH 7.4, 150 mM NaCl, 1 mM MgCl2, 0.05% P20, 0.25 mM TCEP, 0.1 mg/ml BSA, 25 ug/ml yeast tRNA, 25 C; EMSA: 10 mM HEPES-KOH pH 7.5, 140 mM KCl …
[4] = biological target: T1, LS12 E34S (Archaeoglobus fulgidus scaffold, laboratory-evolved); experiment: EMSA; details: titration regime; SPR: 10 mM HEPES pH 7.4, 150 mM NaCl, 1 mM MgCl2, 0.05% P20, 0.25 mM TCEP, 0.1 mg/ml BSA, 25 ug/ml yeast tRNA, 25 C; EMSA: 10 mM HEPES-KOH pH 7.5, 140 mM KCl …

Row | Sequence | Kd [3] [nM] | Kd [2] [nM] | further results
1 | AGAGGCAGAGAAAGGGAAACCUUGUGAGGCCUCU [Cy5-CS1] |  |  | Kd [1]: < 0.5 nM
2 | GGUGGCAGAGAAAGGCGAAAGCCUUGUGAGGCCAUCAAAUCGACGAAAGACACAGAACG [CS1] | 0.00682 |  | Kd ([2]; equilibrium analysis): 27.5 nM
3 | GGUGGCAAAGAAAGGCGAAAGCCUUGUGAGGCCAUCAAAUCGACGAAAGACACAGAACG [CS1-M2b] | 0.0865 |  | Kd fold change relative to LS4 (fold higher Kd than LS4) [2]: 1270
4 | GGAUGCAGAGAACGAAAGUUCCAUGACGCAUCCAAAUCGACGAAAGACACAGAACG [CS2] | 114 | 0.00724 | 
5 | GGCAGAGAAAGGCCAUACAAUCAUUGGCUUUUCCAUGACGCCAGUUCCAGUGGCAUCGACGAAAGACACAGAACG [LS12-1] |  | 0.0105 | 
6 | GGAUGCAGAGAACGAAAGUUCCAUUACGCAUCCAAAUCGACGAAAGACACAGAACG [CS2-M3] |  | 6.02 | 
7 | AGAGGCAGAGAAGGAAACUUCCAUGACGCCUCU [Cy5-CS2] |  |  | Kd [4]: < 0.5 nM
8 | GGCAGAGAAAGGCCAUACAAUCAUUGGCCUUGUGAGGCCGUGUGUCUUCCAGUGGCAUCGACGAAAGACACAGAACG [LS4-1] | 0.0736 |  | 
9 | GGAUCGCGUGAUCCGAAAGGUGACGAUCCAAAUCGACGAAAGACACAGAACG [Box C/D Kt (Kt_SPR)] | 599 | 14.5 | 
10 | GGUGGCUGAGAAAGGCGAAAGCCUUGUGAUGCCAUCAAAUCGACGAAAGACACAGAACG [CS1-M1] | 0.171 |  | Kd ([2]; equilibrium analysis): 7.7 nM
11 | GGUGGCAUAGAAAGGCGAAAGCCUUGUGUGGCCAUCAAAUCGACGAAAGACACAGAACG [CS1-M2] | 2.21 |  | Kd ([2]; N.D. in Table S4): > 1000 nM

Source: article PMC8789040
